Key:
[1] = tested on: Protein VI (Human adenovirus 2); experiment: FP; settings: 20 mM Tris pH 8.0, 0.025% DDM, 1 mM MgCl2, 21 C
[2] = biological target: pVI (precursor to protein VI) (Human adenovirus 2) (UniProt P03274); experiment: FP; settings: 20 mM Tris pH 8.0, 0.025% DDM, 0.1 mM DTT, 1 mM MgCl2, 21 C; 4:1 stoichiometry
Chain of pVI (precursor to protein VI) (Human adenovirus 2) (P03274 whole entry): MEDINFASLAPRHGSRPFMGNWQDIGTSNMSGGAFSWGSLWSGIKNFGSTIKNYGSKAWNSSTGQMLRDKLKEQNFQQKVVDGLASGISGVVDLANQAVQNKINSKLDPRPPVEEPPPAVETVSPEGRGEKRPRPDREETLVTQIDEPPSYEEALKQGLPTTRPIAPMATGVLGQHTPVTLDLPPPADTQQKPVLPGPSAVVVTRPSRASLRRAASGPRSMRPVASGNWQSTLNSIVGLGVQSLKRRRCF

Q: With 33-mer dsDNA as the substance, how does the Kd [1] read?
A: 241 nM

Q: And the Kd [2]?
A: 35 nM
